Reference: patent US20230348616A1 (MIE UNIVERSITY, published 2023)

What was measured:
Experiment in all cases: flow cytometry on peptide-pulsed T2 cells, scFv 100 nM
[1] = target: T1, 1F
T1 construct: also called HLA-A2 / point-mutant NY-ESO peptide 1F complex on T2 cells

[2] = target: T2, 2M
T2 construct: also called HLA-A2 / point-mutant NY-ESO peptide 2M complex on T2 cells

[3] = target: T3, 3A
T3 construct: also called HLA-A2 / point-mutant NY-ESO peptide 3A complex on T2 cells

[4] = target: T4, 4A
T4 construct: also called HLA-A2 / point-mutant NY-ESO peptide 4A complex on T2 cells

[5] = target: T5, 5A
T5 construct: also called HLA-A2 / point-mutant NY-ESO peptide 5A complex on T2 cells

[6] = target: T6, 6L
T6 construct: also called HLA-A2 / point-mutant NY-ESO peptide 6L complex on T2 cells

[7] = target: T7, 7F
T7 construct: also called HLA-A2 / point-mutant NY-ESO peptide 7F complex on T2 cells

[8] = target: T8, 8A
T8 construct: also called HLA-A2 / point-mutant NY-ESO peptide 8A complex on T2 cells

[9] = target: T9, 9A
T9 construct: also called HLA-A2 / point-mutant NY-ESO peptide 9A complex on T2 cells

Binder | standardized gMFI [1] | standardized gMFI [2] | standardized gMFI [3] | standardized gMFI [4] | standardized gMFI [5] | standardized gMFI [6] | standardized gMFI [7] | standardized gMFI [8] | standardized gMFI [9]
NYC-0003 (scFv, not shown: small tags and cut ends, also called 3M4E5 scFv; NYC-0003 tag adduct) scFv: EVQLLESGGGLVQPGGSLRLSCAASGFTFSTYQMSWVRQAPGKGLEWVSGIVSSGGSTAYADSVKGRFTISRDNSKNTLYLQMNSLRAEDTAVYYCAGELLPYYGMDVWGQGTTVTVSSGGGGSGGGGSGGGGSQSELTQPRSVSGSPGQSVTISCTGTSRDVGGYNYVSWYQQHPGKAPKLIIHDVIERSSGVPDRFSGSKSGNTASLTISGLQAEDEADYYCWSFAGSYYVFGTGTDVTVL | 3.28 | 3.73 | 4.34 | 0.76 | 0.69 | 4.14 | 3.99 | 3.42 | 4.77
NYA-2060 (scFv, also called NYA-2060 tag adduct) scFv: GEVQLVESGGGLVQPGGSLRLSCAASGFSIRSYDIHWVRQAPGKGLEWVATISYDGSQKYYADSVKGRFTISRDESKNTLYLQMNSLRAEDTAVYHCARGSSGHYEAFDIWGQGTLVTVSSGGGGSGGGGSGGGGSQSVLTQPPSVSAAPGQKVTISCSGSSSNIGNWYVSWYQQLPGTAPKLLIYDNNKRPSGIPDRFSGSKSGTSATLGITGLQTGDEADYYCGTWDSSLSAPWVFGGGTKVTVLGAAAGAGGDYKDDDDKGAAAHHHHHH | 0.52 | 6.93 | 5.51 | 0.73 | 0.7 | 7.94 | 2.51 | 6.18 | 9.48
NYA-2061 (scFv, also called NYA-2061 tag adduct) scFv: GEVQLVESGGGLVQPGGSLRLSCAASGFSIRSYDIHWVRQAPGKGLEWVATISYDGSQKYYADSVKGRFTISRDESKNTLYLQMNSLRAEDTAVYHCARGSSGHYEAFDIWGQGTLVTVSSGGGGSGGGGSGGGGSQSVLTQPPSASGTPGQRVTISCSGSSSNIGNWYVSWYQQLPGTAPKLLIYDNNKRPSGVPDRFSGSKSGTSASLAISGLQSEDEADYYCGTWDSSLSAPWVFGGGTKLTVLGAAAGAGGDYKDDDDKGAAAHHHHHH | 0.54 | 7.17 | 4.73 | 0.59 | 0.66 | 7.13 | 2.04 | 5.22 | 9.16
NYA-0001 (scFv, also called NYA-0001 tag adduct; NY-R119 expressed in a cultured mammalian cell) scFv: GEVQLVESGGGVVQPGRSLTPSCSASGFSIRSYDIHWVRQAPGKGLEWVATISYDGSQKYFADSVKGRFTIFRDESENMVYLQMSGLRVEDTAVYHCARGSSGHYEAFDIWGQGTMVTVSSGGGGSGGGGSGGGGSQSVLTQPPSVSAAPGQKVTISCSGSSSNIGNNYVSWYQQLPGTAPKLLIYDNNKRPSGIPDRFSGSKSGTSATLGITGLQTGDEADYYCGTWDSSLSAPWVFGGGTKVTVLGAAAGAGGDYKDDDDKGAAAHHHHHH | 0.6 | 7.72 | 7.88 | 0.83 | 0.78 | 7.97 | 0.97 | 6.67 | 6.56
NYA-2027 (scFv) scFv: GEVQLVESGGGVVQPGRSLTPSCSASGFSIRSYDIHWVRQAPGKGLEWVATISYDGSQKYFADSVKGRFTIFRDESENMVYLQMSGLRVEDTAVYHCARGSSGHYEAFDIWGQGTMVTVSSGGGGSGGGGSGGGGSQSVLTQPPSVSAAPGQKVTISCSGSSSNIGNNYVSWYQQLPGTAPKLLIYDNNKRPSGIPDRFSGSKSGTSATLGITGLQTGDEADYYCGSWDSSLSAPWVFGGGTKVTVLGAAAGAGGDYKDDDDKGAAAHHHHHH | 0.57 | 7.84 | 9.91 | 0.99 | 0.75 | 7.85 | 5.41 | 9.47 | 6.9
